Experimental data published in article PMC10786891, “Massively parallel profiling of RNA-targeting CRISPR-Cas13d”.
Where a chain is given by its changes, count along the chain named. In names and notes the source's numbering stands.

T1: EsCas13d, nuclease-dead (Eubacterium siraeum, UniProt B0MS50, R295A;H300A;R849A;H854A)
T1 sequence: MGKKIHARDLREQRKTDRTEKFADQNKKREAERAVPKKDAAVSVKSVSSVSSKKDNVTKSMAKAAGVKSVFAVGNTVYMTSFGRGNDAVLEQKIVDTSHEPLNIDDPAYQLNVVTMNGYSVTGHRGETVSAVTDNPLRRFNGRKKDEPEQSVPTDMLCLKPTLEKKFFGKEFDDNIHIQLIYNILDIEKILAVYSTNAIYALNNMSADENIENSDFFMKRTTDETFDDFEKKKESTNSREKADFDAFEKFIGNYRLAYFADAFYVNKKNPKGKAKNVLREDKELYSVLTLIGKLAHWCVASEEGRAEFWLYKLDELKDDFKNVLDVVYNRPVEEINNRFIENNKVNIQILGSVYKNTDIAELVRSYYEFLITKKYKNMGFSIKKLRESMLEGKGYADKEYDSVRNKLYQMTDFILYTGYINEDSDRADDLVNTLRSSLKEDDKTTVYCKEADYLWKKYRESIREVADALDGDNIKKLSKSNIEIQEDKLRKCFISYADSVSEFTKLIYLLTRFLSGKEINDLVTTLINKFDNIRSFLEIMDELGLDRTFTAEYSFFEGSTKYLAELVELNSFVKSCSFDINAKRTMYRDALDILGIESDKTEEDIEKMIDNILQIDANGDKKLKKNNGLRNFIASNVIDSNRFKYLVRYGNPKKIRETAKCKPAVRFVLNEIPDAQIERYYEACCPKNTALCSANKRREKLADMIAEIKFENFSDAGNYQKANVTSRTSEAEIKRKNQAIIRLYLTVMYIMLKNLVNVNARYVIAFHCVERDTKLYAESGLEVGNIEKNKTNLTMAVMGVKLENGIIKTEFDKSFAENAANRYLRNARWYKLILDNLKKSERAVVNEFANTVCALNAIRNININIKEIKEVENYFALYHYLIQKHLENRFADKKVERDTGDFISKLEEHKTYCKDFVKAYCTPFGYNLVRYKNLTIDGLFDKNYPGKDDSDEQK

B1: target 2 MT 5'PFS AAC 3'PFS AAC (mixed)
RNA 1: CACCCGUGCAAAAUUGCAGGGGUCUAAAACCUUCUCCAAAUUGUUUCAUCCU
RNA 2: GGGAAUGGAUCCACAUCUACGAAUUCAACAGGAUGAAACAAUUUGGAGAAGAACAGAUCGGAAGAGCACACGU
B2: target 2 MT 5'PFS CUC 3'PFS UCC (mixed)
RNA 1: B1 RNA 1
RNA 2: B1 RNA 2 with A27C, A28U, A52U, A53C
B3: target 2 MT 5'PFS GCG 3'PFS CCG (mixed)
RNA 1: B1 RNA 1
RNA 2: B1 RNA 2 with A27G, A28C, C29G, A52C, A53C, C54G
B4: target 2 MT 5'PFS AGC 3'PFS AAU (mixed)
RNA 1: B1 RNA 1
RNA 2: B1 RNA 2 with A28G, C54U
B5: target 2 MT 5'PFS UAC 3'PFS ACA (mixed)
RNA 1: B1 RNA 1
RNA 2: B1 RNA 2 with A27U, A53C, C54A
B6: target 2 MT 5'PFS AAU 3'PFS AGA (mixed)
RNA 1: B1 RNA 1
RNA 2: B1 RNA 2 with C29U, A53G, C54A
B7: target 2 MT 5'PFS AGU 3'PFS CGC (mixed)
RNA 1: B1 RNA 1
RNA 2: B1 RNA 2 with A28G, C29U, A52C, A53G
B8: target 2 MT 5'PFS AAG 3'PFS UCG (mixed)
RNA 1: B1 RNA 1
RNA 2: B1 RNA 2 with C29G, A52U, A53C, C54G
B9: target 2 MT 5'PFS GUA 3'PFS CAU (mixed)
RNA 1: B1 RNA 1
RNA 2: B1 RNA 2 with A27G, A28U, C29A, A52C, C54U
B10: target 2 MT 5'PFS ACA 3'PFS UGA (mixed)
RNA 1: B1 RNA 1
RNA 2: B1 RNA 2 with A28C, C29A, A52U, A53G, C54A
B11: target 2 MT 5'PFS AUC 3'PFS AUG (mixed)
RNA 1: B1 RNA 1
RNA 2: B1 RNA 2 with A28U, A53U, C54G
B12: target 2 MT 5'PFS AAA 3'PFS ACU (mixed)
RNA 1: B1 RNA 1
RNA 2: B1 RNA 2 with C29A, A53C, C54U
B13: target 2 MT 5'PFS CGG 3'PFS UCA (mixed)
RNA 1: B1 RNA 1
RNA 2: B1 RNA 2 with A27C, A28G, C29G, A52U, A53C, C54A
B14: target 2 MT 5'PFS GUU 3'PFS AAC (mixed)
RNA 1: B1 RNA 1
RNA 2: B1 RNA 2 with A27G, A28U, C29U
B15: target 2 MT 5'PFS AGA 3'PFS CGG (mixed)
RNA 1: B1 RNA 1
RNA 2: B1 RNA 2 with A28G, C29A, A52C, A53G, C54G
B16: target 2 MT 5'PFS UAC 3'PFS ACG (mixed)
RNA 1: B1 RNA 1
RNA 2: B1 RNA 2 with A27U, A53C, C54G
B17: target 2 MT 5'PFS CAA 3'PFS AUA (mixed)
RNA 1: B1 RNA 1
RNA 2: B1 RNA 2 with A27C, C29A, A53U, C54A
B18: target 2 MT 5'PFS GUU 3'PFS AAU (mixed)
RNA 1: B1 RNA 1
RNA 2: B1 RNA 2 with A27G, A28U, C29U, C54U
B19: target 2 MT 5'PFS AAC 3'PFS AAU (mixed)
RNA 1: B1 RNA 1
RNA 2: B1 RNA 2 with C54U
B20: target 2 MT 5'PFS AAU 3'PFS AGU (mixed)
RNA 1: B1 RNA 1
RNA 2: B1 RNA 2 with C29U, A53G, C54U
B21: target 2 MT 5'PFS UCA 3'PFS UCC (mixed)
RNA 1: B1 RNA 1
RNA 2: B1 RNA 2 with A27U, A28C, C29A, A52U, A53C
B22: target 2 MT 5'PFS AAA 3'PFS ACG (mixed)
RNA 1: B1 RNA 1
RNA 2: B1 RNA 2 with C29A, A53C, C54G
B23: target 2 MT 5'PFS UAC 3'PFS ACC (mixed)
RNA 1: B1 RNA 1
RNA 2: B1 RNA 2 with A27U, A53C
B24: target 2 MT 5'PFS CUC 3'PFS UCA (mixed)
RNA 1: B1 RNA 1
RNA 2: B1 RNA 2 with A27C, A28U, A52U, A53C, C54A
B25: target 2 MT 5'PFS CUC 3'PFS UCU (mixed)
RNA 1: B1 RNA 1
RNA 2: B1 RNA 2 with A27C, A28U, A52U, A53C, C54U
B26: target 2 MT 5'PFS ACA 3'PFS UGU (mixed)
RNA 1: B1 RNA 1
RNA 2: B1 RNA 2 with A28C, C29A, A52U, A53G, C54U
B27: target 2 MT 5'PFS AGC 3'PFS UGU (mixed)
RNA 1: B1 RNA 1
RNA 2: B1 RNA 2 with A28G, A52U, A53G, C54U
B28: target 2 MT 5'PFS AGC 3'PFS AAC (mixed)
RNA 1: B1 RNA 1
RNA 2: B1 RNA 2 with A28G
B29: target 2 MT 5'PFS AGC 3'PFS AAA (mixed)
RNA 1: B1 RNA 1
RNA 2: B1 RNA 2 with A28G, C54A
B30: target 2 MT 5'PFS AGC 3'PFS AAG (mixed)
RNA 1: B1 RNA 1
RNA 2: B1 RNA 2 with A28G, C54G
B31: target 2 MT 5'PFS AGU 3'PFS CGU (mixed)
RNA 1: B1 RNA 1
RNA 2: B1 RNA 2 with A28G, C29U, A52C, A53G, C54U
B32: target 2 MT 5'PFS GUU 3'PFS AAA (mixed)
RNA 1: B1 RNA 1
RNA 2: B1 RNA 2 with A27G, A28U, C29U, C54A
B33: target 2 MT 5'PFS GUU 3'PFS CGU (mixed)
RNA 1: B1 RNA 1
RNA 2: B1 RNA 2 with A27G, A28U, C29U, A52C, A53G, C54U
B34: target 2 MT 5'PFS CAA 3'PFS AUC (mixed)
RNA 1: B1 RNA 1
RNA 2: B1 RNA 2 with A27C, C29A, A53U
B35: target 2 MT 5'PFS AGA 3'PFS CGA (mixed)
RNA 1: B1 RNA 1
RNA 2: B1 RNA 2 with A28G, C29A, A52C, A53G, C54A
B36: target 1 insA 3' of 12,insC 3' of 3 (mixed)
RNA 1: CACCCGUGCAAAAAUGCAGGGGUCUAAAACUGAGCGGAUAACCUCUCUAUGG
RNA 2: GGGAAUGGAUCCACAUCUACGAAUUCGUACCAUAGAGAGGAUUAUCCGCUCCACCGAGAUCGGAAGAGCACACGU
B37: target 1 A1U,A14G (mixed)
RNA 1: B36 RNA 1
RNA 2: GGGAAUGGAUCCACAUCUACGAAUUCGUACCAUAGAGGGGUUAUCCGCUCUCCGAGAUCGGAAGAGCACACGU
B38: target 1 C2G,G15C (mixed)
RNA 1: B36 RNA 1
RNA 2: B37 RNA 2 with G37C, G38A, C50G, U51A

Target: T1, EsCas13d, nuclease-dead
Experiment: crRNA (strand 1, pre-loaded); Mg2+; 40 mM Tris-HCl pH 7.5, 150 mM NaCl, 6 mM MgCl2, 1 mM DTT, 0.1% Tween-20, 0.2 mg/ml BSA; 25 C; 10 min per concentration, then washed
Conditions: tags: His6-TwinStrep-SUMO cleaved; N-terminal SNAP kept (SNAP-Surface 488); label: 3' end held by stalled T7 RNA polymerase

Binder	Kd [nM]
B1	8.8 ± 3.5
B2	5.3 ± 0.9
B3	12.2 ± 1
B4	7.1 ± 1.4
B5	4.9 ± 1.2
B6	3.3 ± 0.5
B7	14.6 ± 1.9
B8	4.4 ± 0.7
B9	6.3 ± 0.5
B10	7 ± 1.5
B11	~70
B12	9.5 ± 2.9
B13	11 ± 5
B14	11.9 ± 1.3
B15	5.2 ± 0.6
B16	5.6 ± 1.3
B17	5.5 ± 1.8
B18	7.5 ± 0.6
B19	6.1 ± 1.5

Binder	Kd [nM]
B20	4.9 ± 0.5
B21	5.7 ± 0.8
B22	4.4 ± 0.5
B23	9.8 ± 2.1
B24	3.3 ± 0.5
B25	5 ± 0.6
B26	9.6 ± 2.5
B27	12.7 ± 1.8
B28	13 ± 4
B29	13 ± 4
B30	9.2 ± 2
B31	13.9 ± 2.3
B32	14 ± 7
B33	12.9 ± 0.9
B34	2.4 ± 1.1
B35	5.5 ± 0.8
B36	26.6 ± 3
B37	17 ± 1.3
B38	35.8 ± 3.1
